Data reported in patent publication US20190367592A1 (AC IMMUNE, published 2019).
Where no end group is shown, it is not given here.

T1: Tau fragment 37-51 (human, UniProt P10636-8 37-51)
T1 construct: range 37-51
T1 peptide (looked up): GDTDAGLKESPLQTP

T2: Tau fragment 28-42 (human, UniProt P10636-8 28-42, not fully specified)
T2 construct: range 28-42
T2 peptide (looked up): GYTMHQDQEGDTDAG

T3: Tau fragment 1-15 (human, UniProt P10636-8 1-15)
T3 construct: range 1-15
T3 peptide (looked up): MAEPRQEFEVMEDHA

T4: MAPT(10-24) (human, also: biotinylated, site not given here)
T4 construct: also called Tau fragment 10-24
T4 peptide: VMEDHAGTYGLGDRK

T5: Tau fragment 19-33 (human, UniProt P10636-8 19-33, not fully specified)
T5 construct: range 19-33
T5 peptide (looked up): GLGDRKDQGGYTMHQ

B1: hu37D3-H9.v28.A4 hIgG1 (antibody, V domains shown)
VH: EVQLVESGGGLVQPGGSLRLSCAASGLIFRSYGMSWVRQAPGKGLEWVATINSGGTYTYYPDSVKGRFTISRDNSKNTLYLQMNSLRAEDTAVYYCANSYSGAMDYWGQGTLVTVSS
VL: DDVLTQTPLSLPVTPGQPASISCRSSQSIVHSNGNTYLEWYLQKPGQSPQLLIYKVSNRFSGVPDRFSGSGSGTDFTLKISRVEAEDVGVYYCFQGSLVPWTFGQGTKVEIK
notes: human IgG1, kappa
B2: 94B2-C1 (antibody, mouse IgG2a, V domains shown)
VH: EVQLQQSGPELVKPGASMKISCKASGYSLTGYTMNWVKQSHGKNLEWIGLISPYNGVTSYNQKFKGKATLTVDKSSNTAYMELLSLTFEDSAVYYCARQGAYWGQGTLVTVSA
VL: not shown
B3: 54C1-H11 (antibody, mouse IgG2a, V domains shown)
VH: EVQLVESGGDLVKPGGSLKVSCVASGFTFRSYGMSWVRQTPDKRLDWVATISSGGNYTYYPDSVKGRFTISRDNAKNTLYLQMSSLKSEDTAMYYCASSYSGAMDYWGQGTSVTVSS
VL: DTVMTQSPLSLPVSLGDQASISCRSSQSIVHSNGNTYLEWYLQKPGQSPKLLIYTVSNRFSGVPDRFSGSGSGTDFTLKISRVEAEDLGVYYCFQGSHVPWTFGGGTKLEIK
B4: 123E9-A1 (antibody, mouse IgG2a, V domains shown)
VH: EVQLQQSGPELVKPGASVKMSCKASGYTFTDYYMKWVKQSHGKSLEWIGDIDPNNGGTSYNQKFKGKATLTVDKSSSTAYMQLNSLTSEDSAVYYCARSAGFGDSFSFWGLGTLVTVSA
VL: DVLMTQTPLSLPVSLGDQASISCRSSQSIVHSNGNTYLEWYLQKPGQSPKLLIYKVSNRFSGVPDRFSGSGSGTDFTLKISRVEAEDLGFYYCFQGSHVPPTFGGGTKLEIK
B5: 89F4-A1 (antibody, mouse IgG2a, V domains shown)
VH: EVQLVESGGGLVQPKGSLKLSCAASGFTFNTYAMNWVRQAPGKGLEWVARIRSKSNNYAAYFADSVKDRFTISRDDSQTMLYLQMNNLKSEDTAMYYCVSGGNYVPFAYWGQGTLVTVSA
VL: NIMMTQSPSSLAVSAGEKVTMSCKSSQSVFYSSEQRNYLAWYQQKPGQSPKLLISWASTRESGVPDRFTGSGSGTDFTLTISSVQGEDLAVYYCHQYLSSFTFGSGTKLEIK
B6: hu94B2.v105 (94B2.HC1 + 94B2.LC13) (antibody, IgG1, V domains shown)
VH: EVQLVQSGAEVKKPGASVKVSCKASGYSLTGYTMNWVRQAPGQGLEWIGLISPYNGVTSYNQKFKGRATLTVDKSTSTAYLELSSLRSEDTAVYYCARQGAYWGQGTLVTVSS
VL: DIVMTQTPLSLPVTPGQPASISCKSSQSLLDSDGKTYLNWLLQKPGQSPQRLIYLVSKLDSGVPDRFSGSGSGTDFTLKISRVEAEDVGVYYCWQGTHFPWTFGQGTKVEIK
notes: also called hu94B2 HC1 + LC13
B7: hu37D3-H9.v1 hIgG4.S228P (antibody)
heavy: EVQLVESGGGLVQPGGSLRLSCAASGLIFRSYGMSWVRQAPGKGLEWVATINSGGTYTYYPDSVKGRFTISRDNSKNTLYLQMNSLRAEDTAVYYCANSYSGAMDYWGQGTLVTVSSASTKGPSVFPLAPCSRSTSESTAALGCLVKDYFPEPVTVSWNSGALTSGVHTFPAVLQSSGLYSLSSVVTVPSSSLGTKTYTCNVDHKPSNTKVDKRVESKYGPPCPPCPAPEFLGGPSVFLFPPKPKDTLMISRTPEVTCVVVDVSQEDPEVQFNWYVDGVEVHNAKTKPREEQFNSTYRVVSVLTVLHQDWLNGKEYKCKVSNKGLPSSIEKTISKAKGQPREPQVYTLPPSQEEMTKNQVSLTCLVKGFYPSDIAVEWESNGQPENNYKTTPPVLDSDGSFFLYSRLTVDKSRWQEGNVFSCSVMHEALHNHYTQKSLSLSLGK
light: EDQLTQSPSSLSASVGDRVTITCRSSQSIVHSNGNTYFEWYQQKPGKSPKLLIYKVSNRFSGVPSRFSGSGSGTDFTLTISSLQPEDFATYYCFQGSLVPWTFGQGTKVEIKRTVAAPSVFIFPPSDEQLKSGTASVVCLLNNFYPREAKVQWKVDNALQSGNSQESVTEQDSKDSTYSLSSTLTLSKADYEKHKVYACEVTHQGLSSPVTKSFNRGEC
notes: also called hu37D3.v1 hIgG4

Legend:
[1] = molecular target: T6, recombinant human Tau monomer, 2N4R isoform (amino acids 2-441) (human, UniProt P10636-8 2-441); assay: SPR, hIgG captured, Tau monomer analyte, 1:1 fit
T6 construct: range 2-441; N-terminal His-tag removed with TEV protease; also called monomeric Tau
Method: Affinity of selected antibodies was assessed at 25° C. using a Biacore T200 instrument, the GE Biacore human IgG capture kit and a CM5 Series S chip. The hIgG were diluted to 0.25 μg/ml in 10 mM HEPES pH7.4, 150 mM NaCl, 0.05% Tween 20 (running buffer, HBSP) and captured at a flow rate of 10 μl/min for 150 seconds. Kinetic data was collected for Human Tau monomer injected at concentrations of 0, 0.4, 1.2, 3.7, 11, 11, 33 and 100 nM in HBSP, using a flow rate of 30 μl/min, a 300 second association phase and a 600 second dissociation phase. Between cycles the surface was regenerated using two sequential 30 second injections of 3M MgCl at 10 μl/min. Data was fit to a 1:1 binding model (Table 15).

[2] = molecular target: T7, full-length human Tau (flTau) (human, UniProt P10636-8 1-441); assay: SPR, hybridoma Ab on anti-IgG chip, flTau analyte
T7 construct: range 1-441; bought (SignalChem); also called human Tau-441
Method: Affinity of non-purified antibodies in serum-free hybridoma supernatants was estimated by surface plasmon resonance using a Biacore T-100 instrument (GE Healthcare, United Kingdom). Antibodies were immobilized onto an anti-IgG biosensor chip, and flTau (SignalChem, Canada) was used as the target analyte. Kinetic analysis was done using a 1:1 Langmuir fit model.
For affinity measurements to flTau, antibodies were measured using SPR on a Biacore instrument, with the KDs determined. Biacore affinity measurements were done by immobilizing antibodies on an anti-IgG chip and using flTau as the target analyte.

[3] = molecular target: T6, recombinant human Tau monomer, 2N4R …; assay: SPR, mIgG2a captured, Tau monomer analyte, 1:1 fit
Text: Antibody heavy and light chains were constructed via gene synthesis and subcloning of the resulting DNA into murine IgG2a (heavy chain) and murine kappa (light chain) mammalian expression vectors. Antibodies were expressed in CHO or 293T cells by transient co-transfection of the heavy chain and light chain plasmids and were purified with affinity resin MabSelectSure (GE Healthcare Life Sciences). Purified recombinant antibodies were screened for binding to Tau monomer protein on a Biacore T200 surface plasmon resonance instrument using a mouse IgG capture kit and a Series S CM5 chip. Antibodies in mIgG2a format diluted in 10 mM HEPES pH7.4, 150 mM NaCl, 0.05% Tween 20 (running buffer, HBSP) were captured for 30 or 45 seconds at a concentration of 1 μg/ml (antibodies 26C1, 94B2-C1, 52F6-F11.v1, 52F6-F11.v2, 11E10-B8, 55E7-F11, 125B1-H3, 123E9-A1, 30G1-B2, 66F5-A1, 89F4-A1, 93A8-D2 and 126F11-G11) or for 70 or 150 seconds at a concentration of 0.1 μg/ml (antibodies 19H6-F7, 3A4-H4, 54C1-H11 and 37D3-H9) using a flow rate of 10 μl/min. […] Association and dissociation times were monitored for 180-480 seconds and for 300-600 seconds respectively. Antibody 37D3-H9 was selected for further analysis due to the high affinity (Table 6) and the absence of NXS/T glycosylation motifs in the CDRs.

Tau fragment 37-51 = molecular target: T1, Tau fragment 37-51; assay: ELISA on Tau 15-mer peptides, O.D.; conditions of this panel not given
Tau fragment 28-42 = molecular target: T2, Tau fragment 28-42; assay: as above
Tau fragment 1-15 = molecular target: T3, Tau fragment 1-15; assay: as above
MAPT(10-24) = molecular target: T4, MAPT(10-24); assay: as above
Tau fragment 19-33 = molecular target: T5, Tau fragment 19-33; assay: as above
[4] = molecular target: T6, recombinant human Tau monomer, 2N4R …; assay: SPR screen, hIgG captured, Tau monomer analyte
Text: Antibody 125B11-H3 was humanized onto VH3 and Vκ1 consensus frameworks. The heavy chain graft included murine residues at position 78 (Kabat numbering system). The Vκ1 graft included murine residues in framework positions 43 and 87. The light chain of 113F5-F7 was also humanized onto the Vκ1 framework, with additional murine residues at framework positions 43 and 87. Humanized variant heavy chains (125B11) and light chains (125B11 and 113F5-F7) were co-transfected in multiple combinations and purified in 96-well format as described above. Humanized variants were then screened for affinity for human Tau monomer using the Biacore human IgG capture kit, a Series S CM5 chip and a Biacore T200 instrument. Antibodies were diluted to 2 μg/ml and captured for 15 seconds at 10 μl/min. Association and dissociation of 0, 100 and 500 nM human Tau monomer in HBSP was monitored for 180s and 300s respectively at a flow rate of 40 μl/min. A 1:1 binding model was applied to the results (Table 9).
Variants hu125B11.v17 (HC3+LC1), hu125B11.v26 (HC4+LC2) and hu125B 11.v28 (HC4+LC4) were selected for high-resolution kinetic analysis based on the affinity screen (Table 10). Antibody 94B2-C1 was humanized onto VH1 and Vx2 frameworks. The heavy chain graft also included murine residues at position 28, 29, 67, 69, 71, and 73 (Kabat numbering system). The Vκ2 graft also included murine residues in framework positions 2, 36, and 46. […] Variant hu94B2.v105 (heavy chain variant 94B2.HCl, light chain variant 94B2.LC13) was selected for detailed SPR characterization (Table 11).

[5] = molecular target: T6, recombinant human Tau monomer, 2N4R …; assay: SPR high-resolution kinetics, hIgG1
[6] = molecular target: T6, recombinant human Tau monomer, 2N4R …; assay: SPR single-cycle, human Fab capture kit, Tau monomer analyte; mean ± range, n=2
Method: Affinity of the humanized antibody variants was measured at 25° C. using a Biacore T200 instrument, the GE Biacore human FAb capture kit, and a CM5 Series S chip. Antibodies were diluted to 1 μg/ml in HBSP (10 mM HEPES pH7.4, 150 mM NaCl, 0.05% Tween 20) and captured at a flow rate of 10 μl/min for 180 seconds. Kinetic data were collected for human Tau monomer injected at 1.2, 3.7, 11, 33 and 100 nM in HBSP using the Single Cycle Kinetics methodology and a flow rate of 30 μl/min. Each concentration of Tau monomer was injected for a period of 3 minutes and dissociation was monitored for ten minutes. Between cycles, the surface was regenerated with two sequential one-minute injections of 10 mM glycine pH2.1. Data was fit to a 1:1 binding model using BIAEvaluation software. Each antibody was analyzed twice within the experiment; data in Table 22 are shown as mean±range.

T7 sequence (P10636 other isoform, or with tags, fused parts or gaps limits assumed): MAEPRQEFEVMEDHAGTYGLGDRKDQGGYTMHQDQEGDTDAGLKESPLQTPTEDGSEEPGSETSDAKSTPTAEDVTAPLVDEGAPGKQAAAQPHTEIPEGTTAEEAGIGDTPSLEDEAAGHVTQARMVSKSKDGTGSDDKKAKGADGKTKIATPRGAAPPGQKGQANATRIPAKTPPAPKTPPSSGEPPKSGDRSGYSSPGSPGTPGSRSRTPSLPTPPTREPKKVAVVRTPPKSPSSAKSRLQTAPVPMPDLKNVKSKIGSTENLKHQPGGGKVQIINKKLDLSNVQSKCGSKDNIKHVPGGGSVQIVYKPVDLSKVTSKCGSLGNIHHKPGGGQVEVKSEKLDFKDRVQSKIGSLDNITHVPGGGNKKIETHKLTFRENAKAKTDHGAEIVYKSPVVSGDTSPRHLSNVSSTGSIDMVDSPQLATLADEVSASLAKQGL
T6 sequence (P10636 other isoform, or with tags, fused parts or gaps limits assumed): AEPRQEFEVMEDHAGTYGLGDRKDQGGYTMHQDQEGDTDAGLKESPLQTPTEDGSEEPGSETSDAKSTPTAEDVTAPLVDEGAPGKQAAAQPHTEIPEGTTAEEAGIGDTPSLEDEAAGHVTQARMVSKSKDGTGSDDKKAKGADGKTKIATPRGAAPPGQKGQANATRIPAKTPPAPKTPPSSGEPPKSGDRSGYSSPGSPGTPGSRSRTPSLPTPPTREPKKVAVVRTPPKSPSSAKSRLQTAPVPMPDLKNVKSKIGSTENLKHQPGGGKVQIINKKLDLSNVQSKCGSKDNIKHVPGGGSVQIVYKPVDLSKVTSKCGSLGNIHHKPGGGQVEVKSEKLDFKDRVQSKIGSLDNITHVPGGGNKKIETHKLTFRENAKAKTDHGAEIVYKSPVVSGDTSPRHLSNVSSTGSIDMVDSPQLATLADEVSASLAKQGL

Binder | Kd [1] | koff [1] | kon [1] | Kd [2] | Kd [3] | koff [3] | kon [3] | binding result (Tau fragment 37-51) | binding result (Tau fragment 28-42) | binding result (Tau fragment 1-15) | binding result (MAPT(10-24)) | binding result (Tau fragment 19-33) | Kd [4] | Kd [5] | koff [5] | kon [5] | Kd [6] | koff [6] | kon [6]
B1 | 1.5 nM | 0.0011 s⁻¹ | 690000 M⁻¹ s⁻¹ | – | – | – | – | – | – | – | – | – | – | – | – | – | – | – | –
B2 | – | – | – | 1.9 nM | 6 nM | 0.0003 s⁻¹ | 50000 M⁻¹ s⁻¹ | no binding (tested: not given) | no binding (tested: not given) | binds | binds | – | – | – | – | – | – | – | –
B3 | – | – | – | 1.5 nM | 0.6 nM | 0.0002 s⁻¹ | 300000 M⁻¹ s⁻¹ | no binding (tested: not given) | no binding (tested: not given) | no binding (tested: not given) | binds | no binding (tested: not given) | – | – | – | – | – | – | –
B4 | – | – | – | 1.8 nM | 52 nM | 0.02 s⁻¹ | 400000 M⁻¹ s⁻¹ | no binding (tested: not given) | binds | no binding (tested: not given) | no binding (tested: not given) | binds | – | – | – | – | – | – | –
B5 | – | – | – | 2.9 nM | 27 nM | 0.007 s⁻¹ | 300000 M⁻¹ s⁻¹ | binds | binds | no binding (tested: not given) | no binding (tested: not given) | no binding (tested: not given) | – | – | – | – | – | – | –
B6 | – | – | – | – | – | – | – | – | – | – | – | – | 4.1 nM | 3.7 nM | 0.0003 s⁻¹ | 80000 M⁻¹ s⁻¹ | – | – | –
B7 | 2 nM | 0.0013 s⁻¹ | 670000 M⁻¹ s⁻¹ | – | – | – | – | – | – | – | – | – | – | – | – | – | 2.3 nM | 0.001 s⁻¹ | 600000 M⁻¹ s⁻¹
